# Test results: article PMC6607583
# Assays:
# [1] = target: HIV-1 NL4-3 Nef-FTS Mut1 (WL-EEEE to AA-AAAA) (HIV-1 (NL4-3 strain)) (UniProt P03406); experiment: pull-down; HeLa cells transiently transfected with FTS-tagged bait, cross-linked with 1 mM DSP (4 °C, 6 h), lysed in 50 mM Tris-HCl pH 7.4, 300 mM NaCl, 5 mM EDTA, 0.5% NP-40; bait isolated on Strep-Tactin resin overnight at 4 °C; endogenous prey detected by immunoblotting
# [2] = target: HIV-1 NL4-3 Nef-FTS Mut2 (EEEE-PxxP to AAAA-AxxA) (HIV-1 (NL4-3 strain)) (UniProt P03406); experiment: as above
substance,measurement,setting,value
"autophagy-related 9A (ATG9A) protein, endogenous in HeLa (from UniProt Q7Z3C6 1-839) (natural protein)",Nef-ATG9A pulldown relative to WT Nef,[1],10 % of WT Nef
same,Nef-ATG9A pulldown relative to WT Nef,[2],10 % of WT Nef
